In article PMC6727212 (ACS Chemical Neuroscience, 2019):
“And” between values parts separate entries of the source, which are not always exact repeats. Equal values may be shown once.

B1: human stefin B P74S (natural protein, UniProt P04080 1-98, looked up)
chain: MMSGAPSATQPATAETQHIADQVRSQLEEKENKKFPVFKAVSFKSQVVAGTNYFIKVHVGDEDFVHLRVFQSLSHENKPLTLSNYQTNKAKHDELTYF
B2: recombinant human stefin B wild-type (C3S) (natural protein, UniProt P04080 1-98, looked up)
chain: MMSGAPSATQPATAETQHIADQVRSQLEEKENKKFPVFKAVSFKSQVVAGTNYFIKVHVGDEDFVHLRVFQSLPHENKPLTLSNYQTNKAKHDELTYF
B3: human stefin B P79S (natural protein, UniProt P04080 1-98, looked up)
chain: MMSGAPSATQPATAETQHIADQVRSQLEEKENKKFPVFKAVSFKSQVVAGTNYFIKVHVGDEDFVHLRVFQSLPHENKSLTLSNYQTNKAKHDELTYF
B4: human stefin B P11S (natural protein, UniProt P04080 1-98, looked up)
chain: MMSGAPSATQSATAETQHIADQVRSQLEEKENKKFPVFKAVSFKSQVVAGTNYFIKVHVGDEDFVHLRVFQSLPHENKPLTLSNYQTNKAKHDELTYF
B5: human stefin B P11S P74S (natural protein, UniProt P04080 1-98, looked up)
chain: MMSGAPSATQSATAETQHIADQVRSQLEEKENKKFPVFKAVSFKSQVVAGTNYFIKVHVGDEDFVHLRVFQSLSHENKPLTLSNYQTNKAKHDELTYF
B6: human stefin B P6L (natural protein, UniProt P04080 1-98, looked up)
chain: MMSGALSATQPATAETQHIADQVRSQLEEKENKKFPVFKAVSFKSQVVAGTNYFIKVHVGDEDFVHLRVFQSLPHENKPLTLSNYQTNKAKHDELTYF
B7: human stefin B P36D (natural protein, UniProt P04080 1-98, looked up)
chain: MMSGAPSATQPATAETQHIADQVRSQLEEKENKKFDVFKAVSFKSQVVAGTNYFIKVHVGDEDFVHLRVFQSLPHENKPLTLSNYQTNKAKHDELTYF
B8: human stefin B P74S P79S (natural protein, UniProt P04080 1-98, looked up)
chain: MMSGAPSATQPATAETQHIADQVRSQLEEKENKKFPVFKAVSFKSQVVAGTNYFIKVHVGDEDFVHLRVFQSLSHENKSLTLSNYQTNKAKHDELTYF
B9: human stefin B P6L P74S (natural protein, UniProt P04080 1-98, looked up)
chain: MMSGALSATQPATAETQHIADQVRSQLEEKENKKFPVFKAVSFKSQVVAGTNYFIKVHVGDEDFVHLRVFQSLSHENKPLTLSNYQTNKAKHDELTYF

Molecular target: the molecule itself
Experiment: SEC; Superdex 75 (10 x 300 mm) on FPLC, room temperature, 0.5 mL/min, 500 uL of about 1 mg/mL protein; 10 mM phosphate, 0.15 M NaCl, pH 7.5 (legend and results; the methods say pH 7.0); equilibrium oligomeric state, stB wt as standard

| Protein | binding result |
| --- | --- |
| B1 | binds |

Molecular target: the molecule itself
Experiment: as above
Remark: another data set of the same source

| Protein | stoichiometry N | binding result |
| --- | --- | --- |
| B2 | 2 |  |
| B3 | 2 and 4 |  |
| B4 |  | binds |
| B5 | 2 |  |
| B6 |  | binds |
| B7 |  | binds |
| B8 | 2 |  |
| B9 | 2 |  |
